# Where two headings read alike, the source gives them in different places.
# Tests used:
# Assay in all cases: BLI
# hPolεCD (E. coli) [1] = target: T1, hPolεCD (E. coli) (Homo sapiens, UniProt Q07864 28-1194)
# hPolεCD (E. coli) [2] = target: T1, hPolεCD (E. coli); remark: listed apart in the source
# hPolεCD (insect) = hPolεCD (insect) (Homo sapiens, UniProt Q07864 28-1194)
# hPolεCD (insect), sequence (Q07864 28-1194): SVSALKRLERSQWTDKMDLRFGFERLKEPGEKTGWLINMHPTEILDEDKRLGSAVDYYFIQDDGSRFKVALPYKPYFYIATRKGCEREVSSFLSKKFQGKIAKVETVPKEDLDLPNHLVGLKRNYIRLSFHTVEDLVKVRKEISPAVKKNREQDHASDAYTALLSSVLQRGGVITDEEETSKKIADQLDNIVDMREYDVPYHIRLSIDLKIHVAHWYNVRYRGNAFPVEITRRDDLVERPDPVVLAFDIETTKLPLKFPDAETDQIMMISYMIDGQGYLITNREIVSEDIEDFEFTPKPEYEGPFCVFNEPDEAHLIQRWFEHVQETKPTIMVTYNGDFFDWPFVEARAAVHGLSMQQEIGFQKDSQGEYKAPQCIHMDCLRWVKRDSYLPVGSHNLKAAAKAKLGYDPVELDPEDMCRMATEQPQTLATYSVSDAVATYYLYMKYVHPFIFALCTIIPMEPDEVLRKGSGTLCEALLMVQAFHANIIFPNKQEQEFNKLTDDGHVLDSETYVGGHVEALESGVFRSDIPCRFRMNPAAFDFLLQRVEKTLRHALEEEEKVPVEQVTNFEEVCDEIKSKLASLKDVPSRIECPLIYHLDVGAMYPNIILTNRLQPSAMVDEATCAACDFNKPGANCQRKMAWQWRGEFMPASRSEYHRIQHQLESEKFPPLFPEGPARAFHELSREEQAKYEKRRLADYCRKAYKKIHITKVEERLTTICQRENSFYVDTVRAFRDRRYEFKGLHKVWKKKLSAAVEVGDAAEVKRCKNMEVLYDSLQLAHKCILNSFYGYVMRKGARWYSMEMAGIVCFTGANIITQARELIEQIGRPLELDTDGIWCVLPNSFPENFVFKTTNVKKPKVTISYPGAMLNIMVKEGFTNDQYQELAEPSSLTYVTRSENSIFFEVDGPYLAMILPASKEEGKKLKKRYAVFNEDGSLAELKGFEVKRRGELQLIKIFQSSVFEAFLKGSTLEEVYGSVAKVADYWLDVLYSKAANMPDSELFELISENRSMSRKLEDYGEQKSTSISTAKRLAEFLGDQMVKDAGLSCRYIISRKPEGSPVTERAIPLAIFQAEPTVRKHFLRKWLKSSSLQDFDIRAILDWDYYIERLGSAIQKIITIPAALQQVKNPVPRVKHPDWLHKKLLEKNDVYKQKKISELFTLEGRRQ
# T1 sequence (Q07864 28-1194): as above
binder,measurement,setting,value
"Octet template:primer 23/11 (dsDNA, 3' dideoxycytidine on primer) DNA 1: AATACATAAGCGCTCCAGGCAAT DNA 2: GCCTGGAGCGC",Kd,hPolεCD (E. coli) [1],3260 ± 386 nM
same,Kd,hPolεCD (E. coli) [2],167 ± 24 nM
same,Kd,hPolεCD (insect),213 ± 43 nM
